Data taken from patent US20150023979A1 (VALDOSPAN, published 2015).

T1: HPV31 E7 protein, recombinant (His-TEV-E7 fusion from E. coli) (Human Papilloma Virus type 31 (HPV31), UniProt P17387 1-98, CKII phosphorylation of the consensus site serines in the antigen preparation of Example 2)
T1 construct: mature; also called VE7_HPV31; not shown: N-terminal 6x Histidine tag and TEV cleavage site of the vector
T1 sequence: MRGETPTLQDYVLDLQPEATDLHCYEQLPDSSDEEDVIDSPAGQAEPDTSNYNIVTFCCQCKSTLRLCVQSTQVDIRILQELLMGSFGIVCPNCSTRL

T2: HPV52 E7 protein, recombinant (His-TEV-E7 fusion from E. coli) (Human Papilloma Virus type 52 (HPV52), UniProt P36831 1-99, CKII phosphorylation of the consensus site serines in the antigen preparation of Example 2)
T2 construct: mature; also called VE7_HPV52; not shown: N-terminal 6x Histidine tag and TEV cleavage site of the vector
T2 sequence: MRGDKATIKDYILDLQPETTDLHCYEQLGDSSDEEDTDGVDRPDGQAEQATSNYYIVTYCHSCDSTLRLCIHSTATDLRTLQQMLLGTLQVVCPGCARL

T3: HPV35 E7 protein, recombinant (His-TEV-E7 fusion from E. coli) (Human Papilloma Virus type 35 (HPV35), UniProt P27230 1-99, CKII phosphorylation of the consensus site serines in the antigen preparation of Example 2)
T3 construct: mature; also called VE7_HPV35; not shown: N-terminal 6x Histidine tag and TEV cleavage site of the vector
T3 sequence: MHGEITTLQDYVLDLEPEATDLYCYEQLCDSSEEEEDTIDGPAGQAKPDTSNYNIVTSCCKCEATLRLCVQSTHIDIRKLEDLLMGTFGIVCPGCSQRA

T4: HPV18 E7 protein, recombinant (His-TEV-E7 fusion from E. coli) (Human Papilloma Virus type 18 (HPV18), UniProt P06788 1-105, CKII phosphorylation of the consensus site serines in the antigen preparation of Example 2; biotin on primary amines in the SPR assay)
T4 construct: mature; also called VE7_HPV18; not shown: N-terminal 6x Histidine tag and TEV cleavage site of the vector
T4 sequence: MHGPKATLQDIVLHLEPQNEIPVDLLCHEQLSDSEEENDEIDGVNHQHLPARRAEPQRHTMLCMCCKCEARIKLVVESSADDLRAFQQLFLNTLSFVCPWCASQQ


Assays:
[1] = target: T1, HPV31 E7 protein, recombinant …; assay: ELISA, HPV31E7 immobilised on polystyrene plates in 3-fold dilution steps, detected with ACAB452; no concentrations printed on the X axis
[2] = target: T2, HPV52 E7 protein, recombinant …; assay: ELISA, HPV52E7 immobilised on polystyrene plates in 3-fold dilution steps, detected with ACAB452
[3] = target: T3, HPV35 E7 protein, recombinant …; assay: ELISA and dot-blot, semiquantitative crossreactivity (++ strong positive)
Experimental: (§1) Using ELISA and dot-blot techniques semiquantitative crossreactivities of the isolated mAbs was analysed. For this various mAbs were tested against the accepted high risk species.

[4] = target: T4, HPV18 E7 protein, recombinant …; assay: ELISA and dot-blot, semiquantitative crossreactivity
Experimental: as §1

Binder | binding result [1] | binding result [2] | binding result [3] | binding result [4]
ACAB452 (antibody, IgG1, V domains shown, also called HPV45E7 IgG1 antibody ACAB452) VH: DVQLQESGPGLVKPSQSLSLTCTVTGYSITSDYAWNWIRQFPGNKLEWVGYITYSGSTNYNPSLKSRISITRDTSKNQFFLQFNSVTSEDTATYFCARSWFAYWGQGTLVTVSS VL: DIVMTQTPLSLPVSLGDQASISCRSSQSLVHSNGNTYLHWFLQKPGQSPKLLIYKVSNRFSGVPDRFSGSGSGTDFTLKISRVEAEDLGVYFCLQSAHVPLTFGAGTKLELTR | binds | no binding (tested: 800 nM immobilised antigen (per legend)) | – | –
ACAB164 (antibody, V domains shown, the printed entries run on into the first residues of the constant domains; also called HPV16E7 IgG2a antibody ACAB164) VH: EVQLQQSGLALVQPGASVKISCRTSGYTFTEYTLHWVKQSHGKSLEWIGGINPNNGSPKYNQKFKGKATLTVDKSSSTAYMELRSLTSEDSAVYYCARLDINSFFDYWGQGTTLTVSS VL: DVVMTQSPLSLPVSLGDQASISCRSSQSLVHSNGNTYLQWYLQKPGQSPKLLIYKLSNRFSGVPDRFSGSGSGTDFTLKISRVEAEDLGVYSCSQTTHVPPTFGGGTKLEIKR | – | – | binds | no binding
